From patent US20230312709A1 come the findings set out here.

For the assay, the target named is human platelets (CD61 APC-positive gate P1). Kind of assay: flow cytometry on diluted human whole blood, platelets gated as CD61 APC-positive (P1), PE goat anti-human IgG Fc secondary [panel hIgG4 iso : P1]. On the technique in general: Flow cytometry measures light scatter and fluorescence of single cells or particles in a stream.

For the substance hIgG4-isotype control (antibody), the V2R (% of CD61-positive P1 events right of the PE gate) amounted to 0.11%.
